Measurements published in PMC8368002, “Crystal structure of the INTS3/INTS6 complex reveals the functional importance of INTS3 dimerization in DSB repair” (Cell Discovery, 2020).
Blank lines part the entries; values can stand above or below the binder they belong to.

B2: C-terminus of INTS3 (INTS3c), residues 560–905 and 915–995 (domain or fragment, human)
chain 1: TVVEEPVDITPYLDQLDESLRDKVLQLQKGSDTEAQCEVMQEIVDQVLEEDFDSEQLSVLASCLQELFKAHFRGEVLPEEITEESLEESVGKPLYLIFRNLCQMQEDNSSFSLLLDLLSELYQKQPKIGYHLLYYLRASKAAAGKMNLYESFAQATQLGDLHTCLMMDMKACQEDDVRLLCHLTPSIYTEFPDETLRSGELLNMIVAVIDSAQLQELVCHVMMGNLVMFRKDSVLNILIQSLDWETFEQYCAWQLFLAHNIPLETIIPILQHLKYKEHPEALSCLLLQLRREKPSEEMVKMVLSRPCHPDDQFTTSILRHWCMKHDELLAEHIKSLLIKNNSLPRK
chain 2: KLAQLTLEQILEHLDNLRLNLTNTKQNFFSQTPILQALQHVQASCDEAHKMKFSDLFSLAEEYEDSSTKPPKSRRKAALSS
notes: Two polypeptides of one protein, co-expressed; residues 906-914 are absent; A selenomethionine form was used for phasing (2.6 Å); the final structure is of native crystals (2.4 Å); copies: 2 + 2

Key:
[1] = target: B2; test: crystal structure; INTS3c/INTS6c complex from purified parts, crystallised in 1.7 M ammonium citrate tribasic pH 7.0, 4% v/v pentaerythritol ethoxylate; SAD on selenomethionine INTS3c, native data to 2.4 Å; conditions: both partners purified
INTS3(1-995);hSSB1 [2] = target: T1, INTS3(1-995);hSSB1 (human;human, UniProt Q68E01-2;Q9BQ15 1-995;1-211, |); test: SPR; KD only in Fig. S5c; EMSA: 50 mM NaCl, 20 mM HEPES pH 7.5, 1 mM MgCl2, 0.5 mM EDTA, 0.2 mM DTT, on ice 1 h; SPR: 200 mM NaCl, 40 mM HEPES pH 7.5, 50 uM EDTA, 25 C; conditions: protein: recombinant;recombinant; tags: ;; chain copies: 2;2
T1 sequence (Q9BQ15 whole entry, one chain of several): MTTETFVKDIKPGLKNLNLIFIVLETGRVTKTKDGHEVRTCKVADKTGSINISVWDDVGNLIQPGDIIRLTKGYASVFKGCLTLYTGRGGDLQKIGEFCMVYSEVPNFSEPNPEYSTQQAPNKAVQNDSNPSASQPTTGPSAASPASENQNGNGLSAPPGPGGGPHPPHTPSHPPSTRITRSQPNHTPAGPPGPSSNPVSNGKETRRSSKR

INTS3 full length;hSSB1 = INTS3 full length;hSSB1 (human;human, UniProt Q68E01-2;Q9BQ15 1-1042;1-211, |); test: SPR; KD only in Fig. S5d; EMSA: 50 mM NaCl, 20 mM HEPES pH 7.5, 1 mM MgCl2, 0.5 mM EDTA, 0.2 mM DTT, on ice 1 h; SPR: 200 mM NaCl, 40 mM HEPES pH 7.5, 50 uM EDTA, 25 C; conditions: protein: recombinant;recombinant; tags: ;; copies: 1;1
Sequence of INTS3 full length;hSSB1 (Q9BQ15 whole entry, one chain of several): as above

[3] = target: T2, INTS3(1-500) (INTS3N);hSSB1 (human;human, UniProt Q68E01-2;Q9BQ15 1-500;1-211, |); test: SPR; comparable to hSSB1 alone; KD only in Fig. S5b; EMSA: 50 mM NaCl, 20 mM HEPES pH 7.5, 1 mM MgCl2, 0.5 mM EDTA, 0.2 mM DTT, on ice 1 h; SPR: 200 mM NaCl, 40 mM HEPES pH 7.5, 50 uM EDTA, 25 C; conditions: protein: recombinant;recombinant; tags: ;; copies: 1;1
T2 sequence (Q9BQ15 whole entry, one chain of several): as above

hSSB1 [4] = target: T3, hSSB1 (human, UniProt Q9BQ15 1-211); test: SPR; hSSB1 immobilized; comparable to INTS3(1-500)/hSSB1; KD only in Fig. S5a; EMSA: 50 mM NaCl, 20 mM HEPES pH 7.5, 1 mM MgCl2, 0.5 mM EDTA, 0.2 mM DTT, on ice 1 h; SPR: 200 mM NaCl, 40 mM HEPES pH 7.5, 50 uM EDTA, 25 C; conditions: protein: recombinant
T3 sequence (Q9BQ15 whole entry): as the sequence (Q9BQ15 whole entry, one chain of several) above

INTS3(1-995);hSSB1 [5] = target: T1, INTS3(1-995);hSSB1; test: EMSA; 1 mM MgCl2; EMSA: 50 mM NaCl, 20 mM HEPES pH 7.5, 1 mM MgCl2, 0.5 mM EDTA, 0.2 mM DTT, on ice 1 h; SPR: 200 mM NaCl, 40 mM HEPES pH 7.5, 50 uM EDTA, 25 C; conditions: protein: recombinant;recombinant; tags: ;; chain copies: 2;2; label: 6-FAM (printed 6'-carboxy-fluorescein)
[6] = target: INTS3(1-995);hSSB1;INTS6c (human;human;human, UniProt Q68E01-2;Q9BQ15;Q9UL03 1-995;1-211;800-887, ||); test: EMSA; 1 mM MgCl2; INTS6c 1:1, no effect on binding; EMSA: 50 mM NaCl, 20 mM HEPES pH 7.5, 1 mM MgCl2, 0.5 mM EDTA, 0.2 mM DTT, on ice 1 h; SPR: 200 mM NaCl, 40 mM HEPES pH 7.5, 50 uM EDTA, 25 C; conditions: protein: recombinant;recombinant;recombinant; tags: ;;GST removed; chain copies: 2;2;2; label: 6-FAM (printed 6'-carboxy-fluorescein)
Sequence of INTS3(1-995);hSSB1;INTS6c (Q9BQ15 whole entry, one chain of several): as above

INTS3c = INTS3c (human, UniProt Q68E01-2;Q68E01-2 560-905;915-995); test: EMSA; INTS3c alone unable to bind ssDNA; method inferred; EMSA: 50 mM NaCl, 20 mM HEPES pH 7.5, 1 mM MgCl2, 0.5 mM EDTA, 0.2 mM DTT, on ice 1 h; SPR: 200 mM NaCl, 40 mM HEPES pH 7.5, 50 uM EDTA, 25 C; conditions: protein: recombinant; tags: GST removed
Sequence of INTS3c (Q68E01 916-996, chain 2 of 2, one chain of several): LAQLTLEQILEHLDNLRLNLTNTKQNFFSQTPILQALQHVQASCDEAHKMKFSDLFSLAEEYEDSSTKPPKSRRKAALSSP

[7] = target: the molecule itself; test: crystal structure; INTS3c/INTS6c complex from purified parts, crystallised in 1.7 M ammonium citrate tribasic pH 7.0, 4% v/v pentaerythritol ethoxylate; SAD on selenomethionine INTS3c, native data to 2.4 Å
[8] = target: the molecule itself; test: SEC; analytical size-exclusion chromatography of co-expressed and purified INTS3-hSSB1 complexes (Supplementary Fig. S2)
hSSB1 [9] = target: T3, hSSB1; test: EMSA; comparable affinities among the three; EMSA: 50 mM NaCl, 20 mM HEPES pH 7.5, 1 mM MgCl2, 0.5 mM EDTA, 0.2 mM DTT, on ice 1 h; SPR: 200 mM NaCl, 40 mM HEPES pH 7.5, 50 uM EDTA, 25 C; conditions: protein: recombinant
[10] = target: T2, INTS3(1-500) (INTS3N);hSSB1; test: as above; conditions: protein: recombinant;recombinant; tags: ;; copies: 1;1
INTS3(1-995);hSSB1 [11] = target: T1, INTS3(1-995);hSSB1; test: as above; conditions: protein: recombinant;recombinant; tags: ;; chain copies: 2;2

- stoichiometry N [1]: 2 INTS3c:INTS6c
B1: C-terminus of INTS6 (INTS6c), residues 800–887 (domain or fragment, human, UniProt Q9UL03 800-887, looked up)
chain: MHCRSHEEVNTELKAQIMKEIRKPGRKYERIFTLLKHVQGSLQTRLIFLQNVIKEASRFKKRMLIEQLENFLDEIHRRANQINHINSN
notes: integrator complex subunit 6 (INTS6), human, residues 800-887; Cloned into pGEX-6p-1

Binder: TTTTTTTTTTTTTTTTTTTTTTTTTTTTTTTTTTTTTTTTTTTTTTTT (ssDNA) [dT48]
- binding result (INTS3(1-995);hSSB1 [2]): binds
- binding result (INTS3 full length;hSSB1): binds
- binding result [3]: binds
- binding result (hSSB1 [4]): binds

Binder: TTTTTTTTTTTTTTTTTTTTTTTTTTTTTTTTTTTTTTTTTTTTTTTT (ssDNA) [dT48 (FAM)]
- binding result (INTS3(1-995);hSSB1 [5]): binds
- binding result [6]: binds

Binder: TTTTTTTTTTTTTTTTTTTTTTTTTTTTTTTTTTTTTTTTTTTTTTTT (ssDNA) [ssDNA of Fig. S4d]
- binding result (INTS3c): no binding

Binder: B2
- stoichiometry N [7]: 2

B3: INTS3(1−995) (domain or fragment, human, UniProt Q68E01 1-995, looked up)
chain: MELQKGKGAAAAAAASGAAGGGGGGAGAGAPGGGRLLLSTSLDAKDELEERLERCMSIVTSMTAGVSEREANDALNAYVCKGLPQHEEICLGLFTLILTEPAQAQKCYRDLALVSRDGMNIVLNKINQILMEKYLKLQDTCRTQLVWLVRELVKSGVLGADGVCMTFMKQIAGGGDVTAKNIWLAESVLDILTEQREWVLKSSILIAMAVYTYLRLIVDHHGTAQLQALRQKEVDFCISLLRERFMECLMIGRDLVRLLQNVARIPEFELLWKDIIHNPQALSPQFTGILQLLQSRTSRKFLACRLTPDMETKLLFMTSRVRFGQQKRYQDWFQRQYLSTPDSQSLRCDLIRYICGVVHPSNEVLSSDILPRWAIIGWLLTTCTSNVAASNAKLALFYDWLFFSPDKDSIMNIEPAILVMHHSMKPHPAITATLLDFMCRIIPNFYPPLEGHVRQGVFSSLNHIVEKRVLAHLAPLFDNPKLDKELRAMLREKFPEFCSSPSPPVEVKIEEPVSMEMDNHMSDKDESCYDNAEAAFSDDEEDLNSKGKKREFRFHPIKETVVEEPVDITPYLDQLDESLRDKVLQLQKGSDTEAQCEVMQEIVDQVLEEDFDSEQLSVLASCLQELFKAHFRGEVLPEEITEESLEESVGKPLYLIFRNLCQMQEDNSSFSLLLDLLSELYQKQPKIGYHLLYYLRASKAAAGKMNLYESFAQATQLGDLHTCLMMDMKACQEDDVRLLCHLTPSIYTEFPDETLRSGELLNMIVAVIDSAQLQELVCHVMMGNLVMFRKDSVLNILIQSLDWETFEQYCAWQLFLAHNIPLETIIPILQHLKYKEHPEALSCLLLQLRREKPSEEMVKMVLSRPCHPDDQFTTSILRHWCMKHDELLAEHIKSLLIKNNSLPRKRQSLRSSSSKLAQLTLEQILEHLDNLRLNLTNTKQNFFSQTPILQALQHVQASCDEAHKMKFSDLFSLAEEYEDSSTKPPKSRRKAALSS
notes: The complex with hSSB1 was held on an NTA chip for SPR with DNA, so one of its chains may carry a His tag; source: co-expressed with hSSB1 and purified
- stoichiometry N [8]: 2

Binder: TTTTTTTTTTTT (ssDNA) [dT12]
- binding result (hSSB1 [9]): binds
- binding result [10]: binds
- binding result (INTS3(1-995);hSSB1 [11]): binds
